Reference: publication PMC4222082, “Nitrogen starvation-induced transcriptome alterations and influence of transcription regulator mutants in Mycobacterium smegmatis”

biological target: T1, MBP-GlnR (Mycobacterium smegmatis (SMR5?)) (UniProt A0R4C4); experiment: EMSA; conditions: GlnR: DIG Gel Shift Kit (Roche) buffer, 6% native PAGE, 0.5x TBE; AmtR: 20 mM Tris-HCl pH 7.9, 25 mM KCl, 1 mM DTT, 5 mM MgCl2, 0.5 mg/ml BSA, 5% glycerol …
T1 sequence: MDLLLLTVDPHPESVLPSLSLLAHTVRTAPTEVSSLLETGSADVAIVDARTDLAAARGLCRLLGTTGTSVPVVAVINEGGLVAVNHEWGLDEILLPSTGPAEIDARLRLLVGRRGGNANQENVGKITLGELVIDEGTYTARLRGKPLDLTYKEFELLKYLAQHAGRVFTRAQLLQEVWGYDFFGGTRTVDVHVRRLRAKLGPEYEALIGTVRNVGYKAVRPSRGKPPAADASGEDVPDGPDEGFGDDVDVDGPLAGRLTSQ

| Sequence | binding |
| --- | --- |
| GTCCGCCAAGTTACCGGCCGGAAAAATAAGGTGCGCGCCTCCCTTATCCTTGTTGGGACTCATTCCGGCTCGATCCCACATGCGAAAGGTTGATCAGGTGGCGCTCGTCGTACAGAAATACGGCGGATCCTCGGTGGCGGACGCCGAGAGGATCCGACGGGTCGCCGAGCGGATCGTCGAGACCAAGAAGGCGGGCAACGACGTCGTCGTCGTCGTCTCCGCGATGGGTGACACCACCGATGACCTGCTGGACCTGGCGCGCCAGGTGTCGCCCGCGCCGCCGCCGCGCGAGATGGACAT (double strand) [msmeg_6258 upstream] | no binding |
| CCAGTCCAGGAAATCACCGGATATCGGCTGGCGCGTCATTTTGACGGAAAACGTGGGGTACGCCGTTTCGCCGGGTCACCTCGGCGAACCACCGTGCGCTGGCCTTGGGCGTGCGGACCTGCGTGGCGTAATCGACGTGGATCAGGCCGAACCGCTTGGCGTAGCCGTACGCCCACTCGAAGTTGTCCAGCAGGCTCCACACGAAATAACCGCGGATGTCGGCACCATCGTCGATCGCCCG (double strand) [narK upstream] | no binding |
| CCGCGACGTCGACCGCGCGCCCGGTCACCGGGCCCGGACCCGGCAAGGTGGTCGTGGTGTCGACGACAGGGGACCCGGCGACGCCGTACCAGGCCGGTGTGGACCTCGCCCGGCAAATGGGCGCGGCCCTGATCAGTTTCGACGGTGCGCAGCACACCGTGGTGTTCAACGGAGATGCCTGCGTCGACACCGCGGTGTTGCGCTTCCTGACCGATCTGCAGTCGCCCCCGGGCAACCTTGCCTGCTAGCTCTTGCACCCCCGTAACACAGATTTAACAGCCGGTGCATACGCTGCGGAGC (double strand) [glnA2 upstream] | binds |
| TTCGGTGTACCTGTGGAAGAACACCGTGGAGAAGGCACAGTCCTTCGACGTCAAGGCAATTCAGGACAACGCCGATGGCGTGAGCTTCGACGCGCCCGAGGGCAAGGTCACCATCGACGGCGAGAACCACCACATCACCAAGACCGCCCGCATCGGTGAGATCCGCCCCGACGGCCTGATCTACACGGTGTGGGAGTCCAAGGGCCCCATCGAGCCGGATCCGTACCTGAAGTCCTACCCGTGGGCCGCAGGGCTGTCGAGCTGATCAGATAGTCACACCGAGGGGGATCTGACAACCGT (double strand) [msmeg_2981 upstream] | no binding |
| GGACCGGGACCGGATAGCCAGGATCCCAACCGGGAGCCGTTTGTGCGGGCCATGATGTCAGGATAGGCGCGTGCGGATGTCCGGCCGCCGGGTGCCACGTCGCGACGCGGTTCACACCGATGTGTGCTGGAGTTCACCGGCGGACACGCTCAAACCGATTGCGTAACGTCGGCGCAACATCGGGTTGACGACTGCGCAACATCGTGTCCTTAGCGTCAACGCGCGGGTTACCAGTAAAGGAGAACACTCA (double strand) [glnA upstream] | binds |
| GCCCTCCGGGCGGTATCTGCGCCTGAACTTCTCCGGGCCGGAGCCGGACCGGTTCGAGGAGGCGGCGCGCGTGATCGGACGGTCGCTGCGCAGACAGCTGTGACCCGGCGGTTGTGGCCTGACTGTGGTCCGGAGAGCTCACCGGTCGGGGACCTCACATGTGCGTTGCCGAAGACGTGAGCACACCGTGATGGGGGCTTCACACAGCGCGACATCGCGGCAATATCGGGTTCTTAGCCTCGCCCTATG (double strand) [nirB upstream] | no binding |
| GTGGCGCGGCAGGGCGGCCACGGGCAGGCCCTGCTGGTCTTCGACACCGGTGACGGCCGCACGCTGCAGACCCATCCGCTTCCCGAGGCCACCGGCTGGCCGGTCGGGGTATCGATCGGCCACGACGGCCGCGTGGTCACCGCGACGAGTGACGGGCAAGTGTATGGCTTCTCACCGGCATGATGCCGGAAGTTTTACAGGGAATTGACGAAATCTCCACAGAAAGTGGTGGGCTTCGTGTGAGGATTTGGCGCGGCAACCGTGCAAGATCAATGAATTTCTGGGGGAAGGCAATAACCA (double strand) [msmeg_1052 upstream] | no binding |
| CAAACATCTCCTCACGGTGGCGGCTCGAAACAAGCCGTTCACTCGCAGTAACCGACGTTTCTGTTACGGAGATGGTCGCCAAGTGTTGCAGCGTGGTTAAAACTCAAACCGCGCTTTACAGCGGGTTGCCCCATCGGCCCGTGAACGCAACCTGCTCAAGTGCCAGACGTTCACGCGGGCGGCTGTCGCGTTCGGCGATGGCCTCGTCGGCCGTCGCGTAGTCACCGAGGTGTCCCAGCG (double strand) [amt1 upstream] | binds |
| CCCAGCTCGCCACTCTCGATGGTGGCCAGCACCAGGGACTTCTCGGGCACGAACCCGAGCACGGCGGGCAGCGCCGCGATCAACGATCCGGGCCGGTTGATACGAAAATCCGGTGTGTGCGGTGAAGGTGTCATGTGCCGACCGTGGCAACCGGCGCCGACGCCGTTCACCCCGAAAACCGGCTGCGACGAGTGGCTGTGGACGAAATCGGCTCTGGGGACAACTTCCGAAACAAACTGTTCACGCGCCATTGCGCGTCTCCGGCGTGCACGCGCGCCGACAGCGGCGTACACACTGACC (double strand) [msmeg_2748 upstream] | no binding |
| GTGTGAACCTCCTTGGGAAGTGCGCCGACGGATCGGCCTCCCGATGAGATTCTGTTGCCGGCGTTTCGCCGGTGCTGCCGTTGCGTTTCCGGAAAGTGAACGCAATCCCGATCACTGTTACGCTCATGTTTCCCGCCGACAAAGCACAGGTCGTTGCACAGCCAACGCCGGCTGTAACGCCCCGCAAACACTCCCGCTGCGGCGCCGCGAACCCGACGTC (double strand) [amtB upstream] | binds |
| GGGGTCACCACCTGCTGCTCGGCATCCACCATGTATCCCAGGAACGCACCGGCCCGGCGCGAAACGTGGTAGTGCACCACGAGTTTGCGCCCGCATCCGGTGCAGCCCACCAGGCCGTCGATCTCGACCGCGGCGGTGGTGACGGCGCGGCAGTGCGTACAGAACACGTCGCGGTGGGCGACCTCGGTGCTCGCGATCGTGATCTCGTCGTCGGCGATACCGTGCGCGAGGGCGTGGGCACGCACACGCAGATTCAGGTGAGCGGGGCCGGCGGTCATCAGTCGCCAGCCCACCACCGCG (double strand) [msmeg_4638 upstream] | no binding |
| CCGGATGTTCCTTTCAGCTCTGCAGATTCGGGTGCCGTCAGTCCCAGTGCGCCTTGAAACCCAGTGCCGGGACGGTCTCCCCCAGCCCGGGTGTGGAGGCCTTGCGGATCAGGGCCAGTGTCTCGGCATACGTGGTGTGGTTCTCCGCGAGCCGCTCGGCGGGCACGGGCAGGCCCGCGAACTCGAACGCCGCGGAAATCTGTTCCTGCGATGGCATGAAATCGGACATGGTTCTCCTCGCTCTCAGAGGTTGGGGGTGAAGTCGACGAAACCGGCGATCCGCTCGAAGGCCCGGCCTG (double strand) [msmeg_1090 upstream] | no binding |
| GCGAGGCAGACTAGCGGCATGACCGATGACGGCTACACAGTCGGTGACTACCTCCTGGACCGGCTCGCCGAACTCGGCGTGACCGAGGTCTTCGGCGTCCCCGGCGACTATCAGCTGGAGTTCCTCGACCACGTCGTGGCGCACCCGCGCATCACGTGGGTCGGCGGCGCGAACGAACTCAACGCGGGCTACGCGGCCGACGGCTACGGCCGGCTGCGGGGCATGGCGGCGTTGGTCACCACGTTCGGCGTCGGTGAGCTCTCGGCGGCCAACGCCATCGCAGGCAGCTACGCCGAGCAC (double strand) [msmeg_5734 upstream] | no binding |
| CGGGGTCATCGGGCGGTCCGGCACGCCCGGCAAGGCCTGGGCCTGGCAGACCCGCTCGTGGTCGAAGGGCAAGATCCACCCCGCGGCGGTGCTCTATCAACACACCATCGACACCGCGTCGAACCCCGGACCGTTGGTCGGCGGCATCCGCGTGGATGTCAACGACGCCTTGGCCCAGGACATCGGCCAGTGGAATTTCCACCCCTGAGGTCACATCACTTTAATCTCGACGCAATTGCGTTGCCATACCGGTGATCTCTACTGAAGGCGCCAGCAGCCCCCTTCAGAGGACACCCGCCC (double strand) [msmeg_6816 upstream] | no binding |
| TGCAGTATCACTACTTTCTTGTTATCCACTTGTCAGGCGTTCGCGGTCTCTGGAGTTTGCTGTGAGGTTTCCTTGAGCCCGAGGCGGGCCCGGATGACGAGGCCGATGACGAACAGTGCCGCGGTGACGATGAACGGCGCCCAGTCGACCCACGGGTCGCCCGTGCGGGGCCACAGGACGTTGACGGTCTCCACGATCACCCACACCAGCGCGAGCCACCCCGCAACGTGTCCGGCACGGCCCAGGAAGGTCGGTTCGGTGGGGTCCCAGGTGCCCCGGAGCTTGCTGATCGCCAACCCC (double strand) [msmeg_6734 upstream] | no binding |
| TGAGGGTCCTAATCCGTCCCTGAACAGGGAAATTACCGGACCATTTTTTGGTCTGGTCTGAGAATGTCGCCGACGACGTTGTGCTGCGACGCTGGCAATTGTTACCGCGCCCAGATTCGTTGGTCAACTTGGAATTACCTGTACATATGCGGGTTTGTTGCAAACATGTTTCGAAGCTGGGAGCCATGCAACGGCAGCGTAAAAATTCTCGATTTGGTCTGCTCTGGTTCGGCTTTTGGTCCACACTCTTCGACATGCCGGGACTTCCAGCTGACCACGAACTGTTCGCGCGCGCCGCAC (double strand) [msmeg_0781 upstream] | binds |
| GGGTCTCTCCAGGGAGGCGATGAGGGTGCGGGCGGCGACAGTGCCGGGAGCCGGATGATCGGCTGGGTCAATTACAGGCCCCGGCCATTGCCGTGTGGTTAGGGATGGACTACTTCTGAATTGCCGAAATCTCACAGCGGCAATGTGCTCGTAATAAGTGCAGCATGCGCCTTGACCTCAACCTCACTTGAGGTGCCAGGCTGGCTCTCATGACATGTGGACTCCAGTGGCCAGAGGCGGTAAACCGCCGCGAACCCGGGGGTAAACCCCCTGGGGACCTGGATCGGCACGCAGTAACTT (double strand) [msmeg_0572 upstream] | binds |
| GGTGGCGGCGAGTTCGATACCGCTGTCGCTCAACGTGACCGGCGGCCACCCCAATCCGGTGAGGTCCACGAGCCTGCGCAGCTGAGGTTGGGGCTCGGAAAACAGCCAGGTCCCACCGGCCAACACCGCGTCGCCGGCCCCCAGCGGCCACACCTCCTCGCGACGGGTCGGCCGGTCCACCACCTCGACGGTGTTGAGGTCCATTCCCGCGACCGTAACCAAAGTGAACGCGCCGTGCACCATGAACCGTGGCACAACGCTCGGCGTGCGAACCGCCGCGATCTGTCCGATTCTTAGTCG (double strand) [msmeg_1293 upstream] | no binding |
| AACGGTGTGCTTCCTCCGCTGTAGGTGGATCACCGCGTGAAGCGGGTGACCGGTGCAGGGTCGGCGCAACTTACTGCGCTTGGAAAATGCTCGCGCAGGAACGTTTCGGTGGATCCCGTCGGCAATGTCGGTGACGTTAACTCTGCACGGCCCCGCGTTACGTTGTGGTGACCTGACGCAACGGATTTCGTTGTGTGTCCGGTAGGCCCGCGTGACGACGAACCCGGCCGGCCGATGTTCGGCCGACCGGGTCGTCACGAGGTCACGGCTA (double strand) [msmeg_2526 upstream] | binds |
